Results as given in PMC3906126.
pKd: −log10 of the molar value.

What was measured:
Assay in all cases: ITC
[1] = biological target: WW1 domain of WWOX (residues 16–50) (human) (UniProt Q9NZC7)
[2] = biological target: WW1–WW2 tandem module of WWOX (residues 16–91) (human) (UniProt Q9NZC7)
[3] = biological target: WW2W domain of WWOX (WW2 domain, residues 57–91, with the Y85W substitution) (human) (UniProt Q9NZC7)
Sequence of WW2W domain of WWOX (WW2 domain, residues 57–91, with the Y85W substitution) (human) (Q9NZC7 57-91 Y85W): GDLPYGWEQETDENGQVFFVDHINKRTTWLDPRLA

Sequence of WW1 domain of WWOX (residues 16–50) (human) (Q9NZC7 16-50): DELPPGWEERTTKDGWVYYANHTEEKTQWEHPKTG
Sequence of WW1–WW2 tandem module of WWOX (residues 16–91) (human) (Q9NZC7 16-91): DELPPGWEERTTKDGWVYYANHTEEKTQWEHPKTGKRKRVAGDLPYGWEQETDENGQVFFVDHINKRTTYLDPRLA

| Substance | pKd [1] | dH [1] [kcal/mol] | pKd [2] | pKd [3] | dH [3] [kcal/mol] |
| --- | --- | --- | --- | --- | --- |
| PY3_A+2 (ErbB4_PY3 peptide with alanine at position +2) | 3.54 | -3.63 | – | – | – |
| PY3_A+4 (ErbB4_PY3 peptide with alanine at position +4) | 3.56 | -4.02 | – | – | – |
| PY3_A+5 (ErbB4_PY3 peptide with alanine at position +5) | 3.80 | -11.4 | – | – | – |
| PY3_A−1 (ErbB4_PY3 peptide with alanine at position −1) | 3.79 | -3.33 | – | – | – |

Substances with a higher pKd [1], results first:

| pKd [1] | dH [1] [kcal/mol] | pKd [2] | pKd [3] | dH [3] [kcal/mol] | Substance |
| --- | --- | --- | --- | --- | --- |
| 3.84 | -6.21 | 4.17 | 4.27 | -4.15 | ErbB4_PY3 peptide (12-mer spanning the PY3 PPXY motif of the ICD of ErbB4) |
| 3.87 | -4.78 | – | – | – | PY3_A+6 (ErbB4_PY3 peptide with alanine at position +6) |
| 3.82 | -6.19 | – | – | – | PY3_A−2 (ErbB4_PY3 peptide with alanine at position −2) |
| 3.95 | -3.67 | – | – | – | PY3_A−3 (ErbB4_PY3 peptide with alanine at position −3) |
